From IntAct's records for PubMed 27478939

B1: Purine nucleoside phosphorylase LACC1 (Homo sapiens), Q8IV20 (parent)
chain: MAEAVLIDLFGLKLNSQKNCHQTLLKTLNAVQYHHAAKAKFLCIMCCSNISYERDGEQDNCEIETSNGLSALLEEFEIVSCPSMAATLYTIKQKIDEKNLSSIKVIVPRHRKTLMKAFIDQLFTDVYNFEFEDLQVTFRGGLFKQSIEINVITAQELRGIQNEIETFLRSLPALRGKLTIITSSLIPDIFIHGFTTRTGGISYIPTLSSFNLFSSSKRRDPKVVVQENLRRLANAAGFNVEKFYRIKTHHSNDIWIMGRKEPDSYDGITTNQRGVTIAALGADCIPIVFADPVKKACGVAHAGWKGTLLGVAMATVNAMIAEYGCSLEDIVVVLGPSVGPCCFTLPRESAEAFHNLHPACVQLFDSPNPCIDIRKATRILLEQGGILPQNIQDQNQDLNLCTSCHPDKFFSHVRDGLNFGTQIGFISIKE

Variants of: B1
Details: with fas_human FASN

Row | effect of a mutation on the interaction | Variant
1 | with no effect | I254V
